According to the Human Domainome abundance scans (Beltran et al. 2025):

B1: Transcriptional regulator ERG, residues 117 to 197; numbered along this chain, P11308 (parent)
chain: NMTTNERRVIVPADPTLWSTDHVRQWLEWAVKEYGLPDVNILLFQNIDGKELCKMTKDDFQRLTPSYNADILLSHLHYLRE

Variants of: B1
Experiment: abundance fitness (aPCA) (normalised: wild type 0, dead -1); higher = more abundant; growth selection in yeast, the domain comes from the species named
Settings: Homo sapiens

Abundance fitness of substitutions, site by site:
G35: V -0.05; T 0.061; K 0.044; S 0.012; M -0.047; D 0.063; I -0.021; R -0.027; L -0.069; H 0.088; E 0.009; C -0.057; W -0.273; F -0.276; P -0.302; A 0.03; Q 0.05
Y34: R -0.211; Q -0.28; W -0.105; T -0.449; E -0.2; D -0.326; C -0.186; S -0.278; F -0.021; P -0.523; I -0.171; K -0.056; G -0.254; V -0.341; H -0.06
K50: I -0.1; G -0.089; H -0.098; N 0.032; C 0.015; L -0.054; V -0.009; T 0.014; W -0.05; R -0.032; D -0.004; A 0.044; Q -0.022; E 0.035; P -0.011
N46: P -0.244; V -0.617; D 0.023; S 0.012; M -0.255; W -0.201; E 0.039; C -0.066; Y -0.082; Q -0.144; I -0.379; H -0.063; R -0.106; K -0.104; L -0.251; T -0.035; F -0.133
V31: W -0.439
D48: H -0.282; S -0.052; R -0.183; N 0.022; G -0.114; K -0.123; V -0.378; W -0.969; P -0.295; C -0.075; E -0.076; Q -0.227; L -0.521; M -0.412; T 0.033; F -0.399; Y -1
L36: Q -0.67; R -0.81; Y -0.375; N -0.75; M -0.038; D -0.426; I -0.066; V -0.225; S -0.829; G -0.563; W -0.253; P -1.08; F -0.038; A -0.476; E -0.889; C 0.014; T -0.357
V39: W -0.334; L 0.066; R -0.278; T -0.002; I 0.007; Q -0.219; A -0.169; F 0.04; D -0.241; P -0.295; C 0.005; Y -0.252; N -0.144; M -0.045; S -0.116; K -0.242
Q45: C -0.234; H 0.07; R -0.055; D -0.096; S -0.005; F -0.274; E 0.045; T -0.132; P -0.407; Y -0.113; W -0.292; K 0.042; V -0.154; M -0.083; L -0.241; I -0.235; G -0.042
D38: A -0.217; C -0.289; P 0.046; H -0.049; M -0.317; L -0.756; T -0.052; N -0.011; Y -0.293; S -0.054; V -0.755; K -0.091; R -0.146; Q -0.067; W -0.398; E -0.094; G -0.004; F -0.541
P37: Y -0.018; M 0.001; S 0.08; A 0.022; N 0.072; T 0.072; R 0.014; F -0.143; G -0.026; V -0.024; K 0.054; I 0.106; H 0.016; Q -0.044; C 0.017; D -0.027; W -0.123; L 0.001; E 0.018
G49: A -0.837; K -0.945; M -0.678; W -1.04; Q -0.836; D -0.874; R -0.8; V -0.895; I -1.4; S -0.737; T -1.11; N -1.08; L -0.833; F -0.816; Y -1.14
F44: Y -0.081; T -0.297; S -0.275; I -0.497; P -0.435; H -0.407; G -0.382; A -0.195; L -0.217; N -0.067; W -0.072; C -0.215; R -0.278; V -0.523; Q -0.181; D -0.067
E51: P -0.897; R 0.001; G 0.022; A 0.02; S 0; M -0.054; Y -0.026; F -0.277; C -0.127; H -0.113; N -0.092; Q -0.017; D -0.087; W -0.267; T 0.026; I -0.319; K -0.025; V -0.051
K32: Q -0.109; F -0.166; M 0.003; D -0.028; Y -0.198; H -0.037; A -0.103; N 0.05; P -0.468; G -0.103; R -0.052; V -0.036; T -0.044; W -0.158; E 0.053; I 0.005; S -0.111
I47: N -0.492; A -0.521; Y -0.022; K -0.255; C -0.163; P -0.99; F -0.176; D -0.789; R -0.609; Q -1.08; L -0.046; E -0.712; S -0.751; H -0.251; V 0.006; W -0.653; T -0.242
L52: C -0.928; A -0.695
N40: P -0.153; G -0.4; F -0.419; A -0.201; M -0.413; L -0.179; Q -0.165; C -0.172; I -0.317; Y -0.284; H -0.292; D 0.072; R -0.255; T -0.213; S -0.236
L42: N 0.078; F -0.154; S 0.012; V -0.027; R 0.056; D -0.068; Y -0.018; G 0.033; C -0.051; W -0.024; K -0.008; A 0.014; T -0.042; E -0.001; I -0.112
L43: F -0.105; C 0.08; T 0.07; R -0.029; Y -0.082; H 0.027; I -0.217; Q 0.047; P -0.128; N -0.033; S 0.041; M -0.063; G -0.019; D -0.006; K 0.071; W -0.079; V -0.083
I41: T -0.034; V -0.021; N -0.136; W -0.159; P -0.024; C -0.034; G -0.097; L -0.027; S -0.128; Y -0.057; M -0.061; D -0.157; Q -0.112; H -0.075; K 0.012; F 0; R -0.187; E -0.053; A -0.145
E33: T -0.15; Y -0.151; I -0.193; P -0.929; M -0.105; H -0.108; F -0.034; D 0.002; S -0.035; C -0.307; G -0.429; N -0.059; K 0.029; W -0.169
